This passage reports EC50 results from US20230242621A1 (VIR BIOTECHNOLOGY, published 2023).

One may read the EC50 as the concentration needed to bring the measured effect to its halfway point. Read a low EC50 as an effect from little substance.

The test deals with T1, HBsAg (hepatitis B surface antigen; genotype or subtype not stated in the example) (hepatitis B virus).
T1 chain: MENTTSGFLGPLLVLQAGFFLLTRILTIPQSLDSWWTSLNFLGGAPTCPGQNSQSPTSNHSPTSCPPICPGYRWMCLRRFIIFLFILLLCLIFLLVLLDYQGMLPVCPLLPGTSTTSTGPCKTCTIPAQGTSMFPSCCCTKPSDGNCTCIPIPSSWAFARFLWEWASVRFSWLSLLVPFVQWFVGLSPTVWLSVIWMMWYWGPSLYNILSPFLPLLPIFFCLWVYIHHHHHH
Put plainly: ELISA on HBsAg; IgG1 with wild-type Fc. (In general: An ELISA detects its analyte on a solid surface through an enzyme-linked reagent.)

B1: HBC34-v36 (IgG1 with wild-type Fc, allotype G1m17, 1) (antibody, V domains shown)
VH: ELQLVESGGGWVQPGGSQRLSCAASGRIFRSFYMSWVRQAPGKGLEWVATINQDGSEKLYVDSVKGRFTISRDNAKNSLFLQMNNLRVEDTAVYYCAAWSGNSGGMDVWGQGTTVSVSS
VL: SYELTQPPSVSVSPGQTVSIPCSGDKLGNKNVAWFQHKPGQSPVLVIYQDSKRPSGIPERFSGSNSGNTATLTISGTQAMDEAAYFCQTFDSTTVVFGGGTRLTVLG
notes: also called L-CDR2 GL
Molecule B1 had an EC50 of 0.7 ng/mL.
